Laboratory results from publication PMC4677358.

Experiments:
[1] = molecular target: RuvA (bound to Holliday junction DNA) (E. coli) (UniProt P0A809); assay: single-molecule fluorescence imaging in zero mode waveguides (counting of Cy5 photobleaching steps); 400 nM RuvA with 40 nM biotinylated Cy3-Holliday junction DNA held by streptavidin in the nanoholes, unbound washed out; 400 nM Cy5-RuvB added; 20 mM HEPES-KOH pH 8.0, 10 mM MgCl2; 25 ± 2 °C; holes with a single DNA; step counts fitted for the 42% labeling ratio; no nucleotide
[2] = molecular target: RuvA (bound to Holliday junction DNA) (E. coli) (UniProt P0A809); assay: single-molecule fluorescence imaging in zero mode waveguides (counting of Cy5 photobleaching steps); 400 nM RuvA with 40 nM biotinylated Cy3-Holliday junction DNA held by streptavidin in the nanoholes, unbound washed out; 400 nM Cy5-RuvB added; 20 mM HEPES-KOH pH 8.0, 10 mM MgCl2; 25 ± 2 °C; holes with a single DNA; step counts fitted for the 42% labeling ratio; 1 mM ADP
[3] = molecular target: RuvA (bound to Holliday junction DNA) (E. coli) (UniProt P0A809); assay: single-molecule fluorescence imaging in zero mode waveguides (counting of Cy5 photobleaching steps); 400 nM RuvA with 40 nM biotinylated Cy3-Holliday junction DNA held by streptavidin in the nanoholes, unbound washed out; 400 nM Cy5-RuvB added; 20 mM HEPES-KOH pH 8.0, 10 mM MgCl2; 25 ± 2 °C; holes with a single DNA; step counts fitted for the 42% labeling ratio; 1 mM ATPγS
[4] = molecular target: RuvA (bound to Holliday junction DNA) (E. coli) (UniProt P0A809); assay: single-molecule fluorescence imaging in zero mode waveguides (counting of Cy5 photobleaching steps); 400 nM RuvA with 40 nM biotinylated Cy3-Holliday junction DNA held by streptavidin in the nanoholes, unbound washed out; 400 nM Cy5-RuvB added; 20 mM HEPES-KOH pH 8.0, 10 mM MgCl2; 25 ± 2 °C; holes with a single DNA; step counts fitted for the 42% labeling ratio; 0.5 mM ADP and 0.5 mM ATPγS
[5] = molecular target: RuvA (bound to Holliday junction DNA) (E. coli) (UniProt P0A809)

UniProt P0A809, sequence (P0A809 whole entry): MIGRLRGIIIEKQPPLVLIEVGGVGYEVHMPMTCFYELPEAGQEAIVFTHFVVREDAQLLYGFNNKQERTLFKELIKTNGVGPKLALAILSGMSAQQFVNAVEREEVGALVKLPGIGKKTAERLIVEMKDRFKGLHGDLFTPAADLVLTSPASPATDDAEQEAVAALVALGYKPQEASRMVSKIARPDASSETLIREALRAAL
RuvB, sequence (P0A812 whole entry): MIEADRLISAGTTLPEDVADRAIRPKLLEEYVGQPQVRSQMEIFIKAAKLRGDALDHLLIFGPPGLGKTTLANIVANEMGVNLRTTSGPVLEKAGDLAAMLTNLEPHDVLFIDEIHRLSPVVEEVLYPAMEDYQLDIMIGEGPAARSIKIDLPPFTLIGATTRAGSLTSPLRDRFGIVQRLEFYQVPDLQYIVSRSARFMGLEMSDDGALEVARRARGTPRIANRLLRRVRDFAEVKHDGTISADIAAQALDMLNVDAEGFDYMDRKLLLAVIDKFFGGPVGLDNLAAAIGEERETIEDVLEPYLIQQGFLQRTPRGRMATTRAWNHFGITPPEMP

Cy5-labeled RuvB-S39C (from UniProt P0A812 1-336) (enzyme)
% of Holliday junction DNA (with RuvA) that interacted with RuvB (fit, monomer model) [1]: 77%
% of RuvA-Holliday junction DNA complexes with 0 RuvB dimers bound (fit, dimer model, Cy5 at random) [1]: 35%
% of RuvA-Holliday junction DNA complexes with 0 RuvB dimers bound (fit, dimer model, one Cy5 per labelled dimer) [1]: 52%
% of RuvA-Holliday junction DNA complexes with 0 RuvBs bound (fit, monomer model) [1]: 23%
% of RuvA-Holliday junction DNA complexes with 1 RuvB dimers bound (fit, dimer model, Cy5 at random) [1]: 65%
% of RuvA-Holliday junction DNA complexes with 1 RuvB dimers bound (fit, dimer model, one Cy5 per labelled dimer) [1]: 38%
% of RuvA-Holliday junction DNA complexes with 1 RuvBs bound (fit, monomer model) [1]: 37%
% of RuvA-Holliday junction DNA complexes with 2 RuvB dimers bound (fit, dimer model, Cy5 at random) [1]: 0%
% of RuvA-Holliday junction DNA complexes with 2 RuvB dimers bound (fit, dimer model, one Cy5 per labelled dimer) [1]: 10%
% of RuvA-Holliday junction DNA complexes with 2 RuvBs bound (fit, monomer model) [1]: 40%
% of RuvA-Holliday junction DNA complexes with 3 RuvB dimers bound (fit, dimer model, Cy5 at random) [1]: 0%
% of RuvA-Holliday junction DNA complexes with 3 RuvB dimers bound (fit, dimer model, one Cy5 per labelled dimer) [1]: 0%
% of RuvA-Holliday junction DNA complexes with 3 RuvBs bound (fit, monomer model) [1]: 0%
% of RuvA-Holliday junction DNA complexes with 4 RuvB dimers bound (fit, dimer model, Cy5 at random) [1]: 0%
% of RuvA-Holliday junction DNA complexes with 4 RuvB dimers bound (fit, dimer model, one Cy5 per labelled dimer) [1]: 0%
% of RuvA-Holliday junction DNA complexes with 4 RuvBs bound (fit, monomer model) [1]: 0%
% of RuvA-Holliday junction DNA complexes with 5 RuvB dimers bound (fit, dimer model, Cy5 at random) [1]: 0%
% of RuvA-Holliday junction DNA complexes with 5 RuvB dimers bound (fit, dimer model, one Cy5 per labelled dimer) [1]: 0%
% of RuvA-Holliday junction DNA complexes with 5 RuvBs bound (fit, monomer model) [1]: 0%
% of RuvA-Holliday junction DNA complexes with 6 RuvB dimers bound (fit, dimer model, Cy5 at random) [1]: 0%
% of RuvA-Holliday junction DNA complexes with 6 RuvB dimers bound (fit, dimer model, one Cy5 per labelled dimer) [1]: 0%
% of RuvA-Holliday junction DNA complexes with 6 RuvBs bound (fit, monomer model) [1]: 0%
% of Holliday junction DNA (with RuvA) that interacted with RuvB (fit, monomer model) [2]: 90%
% of RuvA-Holliday junction DNA complexes with 0 RuvB dimers bound (fit, dimer model, Cy5 at random) [2]: 11%
% of RuvA-Holliday junction DNA complexes with 0 RuvB dimers bound (fit, dimer model, one Cy5 per labelled dimer) [2]: 26%
% of RuvA-Holliday junction DNA complexes with 0 RuvBs bound (fit, monomer model) [2]: 10%
% of RuvA-Holliday junction DNA complexes with 1 RuvB dimers bound (fit, dimer model, Cy5 at random) [2]: 48%
% of RuvA-Holliday junction DNA complexes with 1 RuvB dimers bound (fit, dimer model, one Cy5 per labelled dimer) [2]: 35%
% of RuvA-Holliday junction DNA complexes with 1 RuvBs bound (fit, monomer model) [2]: 10%
% of RuvA-Holliday junction DNA complexes with 2 RuvB dimers bound (fit, dimer model, Cy5 at random) [2]: 41%
% of RuvA-Holliday junction DNA complexes with 2 RuvB dimers bound (fit, dimer model, one Cy5 per labelled dimer) [2]: 26%
% of RuvA-Holliday junction DNA complexes with 2 RuvBs bound (fit, monomer model) [2]: 21%
% of RuvA-Holliday junction DNA complexes with 3 RuvB dimers bound (fit, dimer model, Cy5 at random) [2]: 0%
% of RuvA-Holliday junction DNA complexes with 3 RuvB dimers bound (fit, dimer model, one Cy5 per labelled dimer) [2]: 13%
% of RuvA-Holliday junction DNA complexes with 3 RuvBs bound (fit, monomer model) [2]: 30%
% of RuvA-Holliday junction DNA complexes with 4 RuvB dimers bound (fit, dimer model, Cy5 at random) [2]: 0%
% of RuvA-Holliday junction DNA complexes with 4 RuvB dimers bound (fit, dimer model, one Cy5 per labelled dimer) [2]: 0%
% of RuvA-Holliday junction DNA complexes with 4 RuvBs bound (fit, monomer model) [2]: 29%
% of RuvA-Holliday junction DNA complexes with 5 RuvB dimers bound (fit, dimer model, Cy5 at random) [2]: 0%
% of RuvA-Holliday junction DNA complexes with 5 RuvB dimers bound (fit, dimer model, one Cy5 per labelled dimer) [2]: 0%
% of RuvA-Holliday junction DNA complexes with 5 RuvBs bound (fit, monomer model) [2]: 0%
% of RuvA-Holliday junction DNA complexes with 6 RuvB dimers bound (fit, dimer model, Cy5 at random) [2]: 0%
% of RuvA-Holliday junction DNA complexes with 6 RuvB dimers bound (fit, dimer model, one Cy5 per labelled dimer) [2]: 0%
% of RuvA-Holliday junction DNA complexes with 6 RuvBs bound (fit, monomer model) [2]: 0%
% of Holliday junction DNA (with RuvA) that interacted with RuvB (fit, monomer model) [3]: 92%
% of RuvA-Holliday junction DNA complexes with 0 RuvB dimers bound (fit, dimer model, Cy5 at random) [3]: 11%
% of RuvA-Holliday junction DNA complexes with 0 RuvB dimers bound (fit, dimer model, one Cy5 per labelled dimer) [3]: 23%
% of RuvA-Holliday junction DNA complexes with 0 RuvBs bound (fit, monomer model) [3]: 8%
% of RuvA-Holliday junction DNA complexes with 1 RuvB dimers bound (fit, dimer model, Cy5 at random) [3]: 36%
% of RuvA-Holliday junction DNA complexes with 1 RuvB dimers bound (fit, dimer model, one Cy5 per labelled dimer) [3]: 32%
% of RuvA-Holliday junction DNA complexes with 1 RuvBs bound (fit, monomer model) [3]: 12%
% of RuvA-Holliday junction DNA complexes with 2 RuvB dimers bound (fit, dimer model, Cy5 at random) [3]: 53%
% of RuvA-Holliday junction DNA complexes with 2 RuvB dimers bound (fit, dimer model, one Cy5 per labelled dimer) [3]: 27%
% of RuvA-Holliday junction DNA complexes with 2 RuvBs bound (fit, monomer model) [3]: 18%
% of RuvA-Holliday junction DNA complexes with 3 RuvB dimers bound (fit, dimer model, Cy5 at random) [3]: 0%
% of RuvA-Holliday junction DNA complexes with 3 RuvB dimers bound (fit, dimer model, one Cy5 per labelled dimer) [3]: 14%
% of RuvA-Holliday junction DNA complexes with 3 RuvBs bound (fit, monomer model) [3]: 19%
% of RuvA-Holliday junction DNA complexes with 4 RuvB dimers bound (fit, dimer model, Cy5 at random) [3]: 0%
% of RuvA-Holliday junction DNA complexes with 4 RuvB dimers bound (fit, dimer model, one Cy5 per labelled dimer) [3]: 4%
% of RuvA-Holliday junction DNA complexes with 4 RuvBs bound (fit, monomer model) [3]: 31%
% of RuvA-Holliday junction DNA complexes with 5 RuvB dimers bound (fit, dimer model, Cy5 at random) [3]: 0%
% of RuvA-Holliday junction DNA complexes with 5 RuvB dimers bound (fit, dimer model, one Cy5 per labelled dimer) [3]: 0%
% of RuvA-Holliday junction DNA complexes with 5 RuvBs bound (fit, monomer model) [3]: 12%
% of RuvA-Holliday junction DNA complexes with 6 RuvB dimers bound (fit, dimer model, Cy5 at random) [3]: 0%
% of RuvA-Holliday junction DNA complexes with 6 RuvB dimers bound (fit, dimer model, one Cy5 per labelled dimer) [3]: 0%
% of RuvA-Holliday junction DNA complexes with 6 RuvBs bound (fit, monomer model) [3]: 0%
% of Holliday junction DNA (with RuvA) that interacted with RuvB (fit, dimer model of Table 2) [4]: 97%
% of Holliday junction DNA (with RuvA) that interacted with RuvB (fit, monomer model) [4]: 98%
% of RuvA-Holliday junction DNA complexes with 0 RuvB dimers bound (fit, dimer model, Cy5 at random) [4]: 3%
% of RuvA-Holliday junction DNA complexes with 0 RuvB dimers bound (fit, dimer model, one Cy5 per labelled dimer) [4]: 14%
% of RuvA-Holliday junction DNA complexes with 0 RuvBs bound (fit, monomer model) [4]: 2%
% of RuvA-Holliday junction DNA complexes with 1 RuvB dimers bound (fit, dimer model, Cy5 at random) [4]: 24%
% of RuvA-Holliday junction DNA complexes with 1 RuvB dimers bound (fit, dimer model, one Cy5 per labelled dimer) [4]: 29%
% of RuvA-Holliday junction DNA complexes with 1 RuvBs bound (fit, monomer model) [4]: 5%
% of RuvA-Holliday junction DNA complexes with 2 RuvB dimers bound (fit, dimer model, Cy5 at random) [4]: 70%
% of RuvA-Holliday junction DNA complexes with 2 RuvB dimers bound (fit, dimer model, one Cy5 per labelled dimer) [4]: 33%
% of RuvA-Holliday junction DNA complexes with 2 RuvBs bound (fit, monomer model) [4]: 8%
% of RuvA-Holliday junction DNA complexes with 3 RuvB dimers bound (fit, dimer model, Cy5 at random) [4]: 3%
% of RuvA-Holliday junction DNA complexes with 3 RuvB dimers bound (fit, dimer model, one Cy5 per labelled dimer) [4]: 19%
% of RuvA-Holliday junction DNA complexes with 3 RuvBs bound (fit, monomer model) [4]: 31%
% of RuvA-Holliday junction DNA complexes with 4 RuvB dimers bound (fit, dimer model, Cy5 at random) [4]: 0%
% of RuvA-Holliday junction DNA complexes with 4 RuvB dimers bound (fit, dimer model, one Cy5 per labelled dimer) [4]: 4%
% of RuvA-Holliday junction DNA complexes with 4 RuvBs bound (fit, monomer model) [4]: 37%
% of RuvA-Holliday junction DNA complexes with 5 RuvB dimers bound (fit, dimer model, Cy5 at random) [4]: 0%
% of RuvA-Holliday junction DNA complexes with 5 RuvB dimers bound (fit, dimer model, one Cy5 per labelled dimer) [4]: 1%
% of RuvA-Holliday junction DNA complexes with 5 RuvBs bound (fit, monomer model) [4]: 14%
% of RuvA-Holliday junction DNA complexes with 6 RuvB dimers bound (fit, dimer model, Cy5 at random) [4]: 0%
% of RuvA-Holliday junction DNA complexes with 6 RuvB dimers bound (fit, dimer model, one Cy5 per labelled dimer) [4]: 0%
% of RuvA-Holliday junction DNA complexes with 6 RuvBs bound (fit, monomer model) [4]: 3%

RuvB (from UniProt P0A812 1-336) (enzyme)
ratio of fluorescent spots of Cy3-Holliday junction DNA to nanoholes after addition of 400 nM RuvB with 1 mM ATP and 5 min at 25 °C (about 90% before the addition); loss of spots by branch migration [5]: 16%
